Test results published in paper PMC4692385, “Identification of Thyroid Hormones and Functional Characterization of Thyroid Hormone Receptor in the Pacific Oyster Crassostrea gigas Provide Insight into Evolution of the Thyroid Hormone System”.

Assays:
rCgTR = rCgTR (Crassostrea gigas, UniProt A0A0F6V015 1-479); experiment: EMSA; no ligand; LightShift Chemiluminescent EMSA kit (Pierce), manufacturer's instructions; buffer, salt, pH and temperature not stated; 100-fold cold probe competition; anti-His supershift; conditions: protein: recombinant, tags: pET30a, label: biotin, blunt
rCgTR1-240 = rCgTR1-240 (Crassostrea gigas, UniProt A0A0F6V015 1-240); experiment: EMSA; no ligand; homodimer and monomer bands; LightShift Chemiluminescent EMSA kit (Pierce), manufacturer's instructions; buffer, salt, pH and temperature not stated; 100-fold cold probe competition; anti-His supershift; conditions: protein: recombinant, tags: pET30a, label: biotin, blunt
rCgTR1-240, sequence (A0A0F6V015 entry or part of it): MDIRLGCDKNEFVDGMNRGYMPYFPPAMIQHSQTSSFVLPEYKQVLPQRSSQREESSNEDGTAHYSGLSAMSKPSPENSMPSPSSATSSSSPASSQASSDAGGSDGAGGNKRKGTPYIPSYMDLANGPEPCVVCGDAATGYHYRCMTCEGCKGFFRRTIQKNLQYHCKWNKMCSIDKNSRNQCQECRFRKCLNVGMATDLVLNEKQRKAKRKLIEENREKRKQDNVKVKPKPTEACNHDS

rCgTR, sequence (A0A0F6V015 entry or part of it): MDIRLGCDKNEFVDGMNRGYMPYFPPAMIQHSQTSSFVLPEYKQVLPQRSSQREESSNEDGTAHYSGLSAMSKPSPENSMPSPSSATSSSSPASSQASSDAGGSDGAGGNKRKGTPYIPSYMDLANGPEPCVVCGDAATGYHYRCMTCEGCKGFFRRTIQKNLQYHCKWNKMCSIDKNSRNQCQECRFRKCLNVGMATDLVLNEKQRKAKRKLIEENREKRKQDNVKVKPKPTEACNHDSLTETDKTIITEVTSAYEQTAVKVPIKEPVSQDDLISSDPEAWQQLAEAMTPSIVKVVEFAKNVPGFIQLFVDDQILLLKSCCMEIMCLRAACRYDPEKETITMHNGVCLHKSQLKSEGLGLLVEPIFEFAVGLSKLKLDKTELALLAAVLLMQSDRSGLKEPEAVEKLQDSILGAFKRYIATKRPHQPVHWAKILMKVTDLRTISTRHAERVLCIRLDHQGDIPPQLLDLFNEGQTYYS

| Binder | binding result (rCgTR) | binding result (rCgTR1-240) |
| --- | --- | --- |
| DR0 (dsDNA) DNA 1: CCGTAAGGTCAAGGTCACTCG DNA 2: CGAGTGACCTTGACCTTACGG | binds |  |
| CgDR5 (dsDNA) DNA 1: GTCCGTGATCACGGGTAGGTCAAACTG DNA 2: CAGTTTGACCTACCCGTGATCACGGAC | binds |  |
| DR3 (dsDNA) DNA 1: CCGTAAGGTCACAGAGGTCACTCG DNA 2: CGAGTGACCTCTGTGACCTTACGG | binds |  |
| DR2 (dsDNA) DNA 1: CCGTAAGGTCACAAGGTCACTCG DNA 2: CGAGTGACCTTGTGACCTTACGG | binds | binds |
| DR4 (dsDNA) DNA 1: CCGTAAGGTCACAGGAGGTCACTCG DNA 2: CGAGTGACCTCCTGTGACCTTACGG | binds |  |
| DR1 (dsDNA) DNA 1: CCGTAAGGTCACAGGTCACTCG DNA 2: CGAGTGACCTGTGACCTTACGG | binds |  |
| DR5 (dsDNA) DNA 1: CCGTAAGGTCACCAGGAGGTCACTCG DNA 2: CGAGTGACCTCCTGGTGACCTTACGG | binds |  |
